The values that follow come from patent US20220324953A1 (JIANGSU HENGRUI MEDICINE, published 2022).

Test [1] has as its target T1, human CTGF (antigen of the Biacore assays) (human, UniProt P29279 27-349).
T1 construct: also called antigen human CTGF; human CTGF protein
T1 sequence (looked up): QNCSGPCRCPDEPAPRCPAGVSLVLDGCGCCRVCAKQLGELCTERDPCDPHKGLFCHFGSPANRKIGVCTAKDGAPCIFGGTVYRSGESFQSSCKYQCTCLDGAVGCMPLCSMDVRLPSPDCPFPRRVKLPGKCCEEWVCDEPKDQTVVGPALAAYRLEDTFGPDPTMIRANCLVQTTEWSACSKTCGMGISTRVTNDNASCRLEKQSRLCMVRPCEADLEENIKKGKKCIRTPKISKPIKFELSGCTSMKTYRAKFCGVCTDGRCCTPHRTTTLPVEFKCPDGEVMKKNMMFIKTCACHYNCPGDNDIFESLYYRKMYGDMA
The experiment in a line: Biacore, antibody captured on Protein A, CTGF in flow, 1:1 fit. The source says: (§1) A certain amount of each of the test antibodies was affinity-captured with Protein A biosensor chip (Cat. # 29127556, GE), and then a certain concentration of human or mouse CTGF was allowed to flow through the surface of the chip. The reaction signals were detected in real time with Biacore instrument to generate a binding and dissociation curve. After the dissociation was completed in each cycle, the biosensor chip was washed and regenerated with Glycine-HCl regeneration solution pH 1.5 (Cat. # BR-1003-54, GE). The running buffer for the assay was 1×HBS-EP buffer solution (Cat. # BR-1001-88, GE).
Background: In SPR one partner is held on a chip, and binding of the other changes the refractive index at the surface.

Test [2] concerns the target T2, mouse CTGF (antigen of the Biacore assay) (mouse, UniProt P29268 26-348).
T2 construct: also called mouse CTGF protein
T2 sequence (looked up): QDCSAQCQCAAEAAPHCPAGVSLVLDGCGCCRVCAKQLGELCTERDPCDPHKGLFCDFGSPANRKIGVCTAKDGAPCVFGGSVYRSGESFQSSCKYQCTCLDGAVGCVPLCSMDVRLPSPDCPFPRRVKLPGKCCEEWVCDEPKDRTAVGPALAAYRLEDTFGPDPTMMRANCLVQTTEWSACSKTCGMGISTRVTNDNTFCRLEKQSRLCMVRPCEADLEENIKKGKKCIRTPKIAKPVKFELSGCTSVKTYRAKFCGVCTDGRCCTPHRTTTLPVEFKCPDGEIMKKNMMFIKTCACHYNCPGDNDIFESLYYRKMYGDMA
Kind of test: Biacore, antibody captured on Protein A, mouse CTGF in flow, 1:1 fit.
Text: as §1

B1: chimeric antibody Ch164 (antibody, human IgG1, lambda, V domains shown)
VH: QVQLKQSGPGLVQPSQSLSITCTVSGFSLTTFGVHWIRQSPGKGLEWLGVIWRRGGTDYNAAFMSRLSITKDNSRSHVFFKMTSLQTDDSAIYYCARDGGFDYWGQGTTLTVSS
VL: QAVVTQESALTTSPGGTVILTCRSSIGAVTTSNYANWVQEKPDHLFTGLIGGTSNRAPGVPVRFSGSLIGDKAALTITGAQAEDDAMYFCALWYSTHYVFGGGTKVTVLG
The Kd is a measure of binding affinity in units of concentration. A lower Kd goes with higher affinity. Broadly, the koff is a measure of how fast the partners let go of each other. A word on the kon: it is a measure of how fast the partners come together. A lower kon goes with slower complex formation. Regarding B1, in test [1], binding was characterised by a dissociation constant (Kd) of 0.133 nM, the koff is 0.00883 s⁻¹ and the association rate constant (kon) amounted to 6.62e+07 M⁻¹ s⁻¹. For the same molecule, in test [2], the equilibrium dissociation constant (Kd) was 0.0822 nM, the koff came out at 0.0101 s⁻¹ and the kon was determined as 1.23e+08 M⁻¹ s⁻¹.

B2: chimeric antibody Ch95 (antibody, human IgG1, kappa, V domains shown)
VH: EVLLQQSGPVLVKPGPSVKISCKASGFTFTNYDIHWVKQSHGKSLEWIGLVYPYNGGTAYNQKFKDKATLTFDTSSSTAYMELNSLTSEDSAVYYCARWGLIPGTTSYFDVWGTGTTVTVSS
VL: QIVLSQSPPILSASPGEKVTMTCRASSSVSYIHWYQQKPRSSPKPWIYATSNLASGVPARFSGSGSGTSYSLTISRVEAEDAATYYCQQWNSNPWTFGGGTRLEIKR
In test [1], B2 gave a Kd of 3.85 nM, a koff of 0.0302 s⁻¹ and a kon of 7.85e+06 M⁻¹ s⁻¹. For the same molecule, in test [2], binding was put at a Kd of 1.71 nM, the koff turned out to be 0.0235 s⁻¹ and the kon stood at 1.38e+07 M⁻¹ s⁻¹.

B3: chimeric antibody Ch147 (antibody, human IgG1, kappa, V domains shown)
VH: EVQLVESGGGLVQPEGSLKLSCAASGFSFNTYAMNWVRQAPGKGLEWVARIRTKSNNYATYYADSVKDRFTISRDDSESMLYLQMNNLKTEDTAMYYCVETGFAYWDQGTLVTVSA
VL: QIVLTQSPAIMSASPGEKVTITCSASSSVSYMHWFQQKPGTSPKLWIYSTSNLASGVPARFSGSGSGTSYSLTISRMEAEDAATYYCQQRSSYPLTFGAGTKLELKR
In test [1], B3 registered a Kd of 0.466 nM, a koff of 0.00693 s⁻¹ and a kon of 1.49e+07 M⁻¹ s⁻¹. In test [2], this molecule displayed a Kd of 1.23 nM, an off-rate constant (koff) of 0.0384 s⁻¹ and a kon of 3.12e+07 M⁻¹ s⁻¹.

B4: Hu95-41wk (antibody, human IgG1, kappa, V domains shown)
VH: EVQLVQSGAEVKKPGASVKVSCKASGFTFTNYDIHWVKQAPGQRLEWIGLVYPYNGGTAYNQKFKDKATLTFDTSASTAYMELSSLRSEDTAVYYCARWGLIPGTTSYFDVWGQGTTVTVSS
VL: EIVLTQSPATLSLSPGERATLSCRASSSVSYIHWYQQKPGQAPRPWIYATSNLASGIPARFSGSGSGTDYTLTISRLEPEDFAVYYCQQWNSNPWTFGGGTKVEIKR
As for B4, in test [1], the Kd is 5.29 nM, the koff worked out at 0.0408 s⁻¹ and the kon was determined as 7.7e+06 M⁻¹ s⁻¹. In test [2], this molecule gave a Kd of 2.44 nM, a koff of 0.0339 s⁻¹ and a kon of 1.39e+07 M⁻¹ s⁻¹.

B5: Hu95-21wk (antibody, human IgG1, kappa, V domains shown)
VH: EVQLVQSGAEVKKPGASVKVSCKASGFTFTNYDIHWVRQAPGQRLEWIGLVYPYNGGTAYNQKFKDRATLTFDTSASTAYMELSSLRSEDTAVYYCARWGLIPGTTSYFDVWGQGTTVTVSS
VL: EIVLTQSPATLSLSPGERATLSCRASSSVSYIHWYQQKPGQAPRPWIYATSNLASGIPARFSGSGSGTDYTLTISRLEPEDFAVYYCQQWNSNPWTFGGGTKVEIKR
For the molecule B5, in test [1], binding was put at a Kd of 7.39 nM, the off-rate constant (koff) was determined as 0.0303 s⁻¹ and the kon is 4.09e+06 M⁻¹ s⁻¹. In test [2], this molecule came in with a Kd of 3.99 nM, a koff of 0.0211 s⁻¹ and a kon of 5.29e+06 M⁻¹ s⁻¹.

B6: Hu95-42wk (antibody, human IgG1, kappa, V domains shown)
VH: EVQLVQSGAEVKKPGASVKVSCKASGFTFTNYDIHWVKQAPGQRLEWIGLVYPYNGGTAYNQKFKDKATLTFDTSASTAYMELSSLRSEDTAVYYCARWGLIPGTTSYFDVWGQGTTVTVSS
VL: EIVLTQSPATLSLSPGERATLSCRASSSVSYIHWYQQKPGQSPRPWIYATSNLASGVPARFSGSGSGTSYTLTISRLEPEDFAVYYCQQWNSNPWTFGGGTKVEIKR
As for B6, in test [1], binding was put at a Kd of 5.74 nM, the koff amounted to 0.0191 s⁻¹ and the kon came to 3.32e+06 M⁻¹ s⁻¹. In test [2], this molecule registered a Kd of 2.42 nM, a koff of 0.0137 s⁻¹ and an association rate constant (kon) of 5.66e+06 M⁻¹ s⁻¹.

B7: Hu95-31wk (antibody, human IgG1, kappa, V domains shown)
VH: EVQLVQSGAEVKKPGASVKVSCKASGFTFTNYDIHWVKQAPGQRLEWMGLVYPYNGGTAYNQKFKDKVTLTFDTSASTAYMELSSLRSEDTAVYYCARWGLIPGTTSYFDVWGQGTTVTVSS
VL: EIVLTQSPATLSLSPGERATLSCRASSSVSYIHWYQQKPGQAPRPWIYATSNLASGIPARFSGSGSGTDYTLTISRLEPEDFAVYYCQQWNSNPWTFGGGTKVEIKR
Consider B7, for which, in test [1], the Kd is 5.84 nM, the koff stood at 0.0326 s⁻¹ and the kon turned out to be 5.59e+06 M⁻¹ s⁻¹. In test [2], the Kd worked out at 2.87 nM, the koff is 0.0225 s⁻¹ and the kon was determined as 7.84e+06 M⁻¹ s⁻¹.
